The target in data set [1] is RecA E38K/ΔC17 (Escherichia coli) (UniProt P0A7G6). To be noted: apparent kcat of ATP hydrolysis with SSB-prebound poly(dT); no lag; higher with SSB than without.
Data set [2] has as its target RecA wild-type (Escherichia coli) (UniProt P0A7G6). The note with it: salt titration midpoint by DNA-dependent ATPase, no SSB, 37 C; value is NaCl at half-maximal ATPase.
Data set [3] concerns the target RecAΔC17 (Escherichia coli) (UniProt P0A7G6). To be noted: salt titration midpoint by DNA-dependent ATPase, no SSB, 37 C; value is NaCl at half-maximal ATPase.
Data set [4] shares this target. The note with it: ATPase rate without SSB relative to with SSB, 10 mM Mg.
In data set [5] the target is RecA wild-type (Escherichia coli) (UniProt P0A7G6). The note with it: ATPase rate without SSB relative to with SSB, 10 mM Mg.

On to poly(dT), for which the activity in data set [1] is > 20 min⁻¹. In addition, the K half in data set [2] is 750 mM NaCl; in data set [3], 700 mM NaCl.
With M13mp8 circular ssDNA, the values for the relative ATPase rate in data set [4] and in data set [5] were 84% and 30%, respectively.

The values are drawn from patent publication US20040157248.
